Data taken from the DeepSol protein solubility set.

Assay: soluble on expression in E. coli; label from the status in PepcDB or PDB records

## MPNKNTQEYWEERGRKAIENELKRDKTKAEEIERILNMMIKRIEKEINAFIVKYGDFAGVTLQEAQKIIDEFDVKAFQEEAKRLVENKDFSDRANEELKKYNTKMYVSREQMLKIQIEFLIAYATAQTELSMREYFESTAYRVFSDQAGILGEGVQVAKEVIDTIVDTQFHGVVWSERLWTNTEAMKQEVEEIIANVVIRGRHPNEYVKDMRKHLNKFEGTARQKTAAIKSLLYTESARVHAQSSIDSMKEISPEGYYMYIAKIDNRTTKVCKGLNGEIFKVKDAKIGVNFYPMHINCRSDCALLPKSMWPKKPSKKRKTKYFGGKVKSGD
  soluble on expression in E. coli: not soluble

## MGSDKIHHHHHHMNPLNLIECLEQKERYTYNEGLIIDFILSHTERVLHMSIYELAEATNSSTSTIVRLCKKTETSGFKEFKIRLSRDLEIHYQAIRNVDANMPFLAQDSDLLIAKKIAQLTTETVQSTQQLLTEAMLNKSIDLLLTAENILAVGVSNSYIRLTDFQTKLLRIQLFIHLIPYQAEQFYLAINATKNDVAILVSYSGNTAEIVNEARIFAEGGTPIIAITSDLNSQLAKYATVILPIPNVEHADFKVSTFSSQLAIEYILNVLYSCIFSRNFDKNYTSQKNTPTSILKF
  soluble on expression in E. coli: not soluble

## MKVPPKKKFLGNSEHPGDLLTQTSKCECQLASVYGNGRVPVKNKKATNAYFQQSIPSWSDTLRMTRQNKKQRGRRRWKKNRKKRRVKTG
  soluble on expression in E. coli: not soluble

## VMPFTEHDKIILRSYEAVVDGIASLIGPFCEIVLHSLEDLNTSAIKIANGENTGRQVGSPITDLALKMLKDIEGSERNFSRSYFTRAKGGVLMKSITVAIRNGENRVIGLLCINVNLDAPFSQVLQSFMPTQEAKEAA
  soluble on expression in E. coli: soluble

## MPDKKTLWMLNELEGFEKPKIKLEQYATSSELAVSMMEMIDETIGFEGKKLIDIGCGCGMLMTTAATMYELETVLGVDIDDEALKICSRNLETAEVQDRCELLQADILDPESDLPRGTFDVAVINPPFGTKNNAGIDMQFVQIGLQMVRPGGSVFSLHKSSTRDYILKNAKKWDGVGAECCAEMRWQLPATYKFHKQKAVDIAVDLIHFKKLDS
  soluble on expression in E. coli: soluble

## MTDVKNDVNVSSVVDADGLIEGNYDQVVESFDDMELKEELLRGIYGFGFEKPSAIQKRAIVPCTTGKDVIAQAQSGTGKTATFSVSILQRIDHEDPHVQALVMAPTRELAQQIQKVMSALGEYLNVNILPCIGGTSVRDDQRKLEAGIHVVVGTPGRVGDMINRNALDTSRIKMFVLDEADEMLSRGFKDQIYEVFRSMPQDVQVVLLSATMPSEVLDVTNRFMRNPIRILVKKDELTLEGIRQFYINVQKDEWKFDCLCDLYNVVNVTQAVIFCNTRRKVDTLTEKMTENQFTVSCLHGDMDQAERDTIMREFRSGSSRVLITTDILARGIDVQQVSLVINYDLPSNRENYIHRIGRSGRFGRKGVAINFVTENDARQLKEIESYYTTQIEEMPESIADLI
  soluble on expression in E. coli: not soluble

## MSKGMFSASQSGFSTIEVYDLGPLNKIDLSIAKAGLEDTGGTVTFSVEQSLLDSLNNADGTSYQLLPPECYTIENATYSVSPGGDRRVTGGSLVYDPHKIYNLCGFDELKYVLPLRVSSTGTPMNSDRTATLYGFIVKEAIVRLASTGGDFVVEGGTTTSPMNLDTEISFENEWDLTTSFATKGADYVDNYNSANSTYYIPLPSDFYTLPDVTIAKGKTTGGSAISLLGETLPPGNYLLPVSLGGLSGQGDASINIDKETVANYFVIKQGGPINRDHWTVTANTEEKTGEVSAAYPHNGQTISLIDGEINTFWHSKWQGGEVAPPYEIILDMGKENSVSQLGLIARQNALTSMNLEIYAGDDGETWNLIGKYFFDGSIKTEQMVPVKACDARWIRIYIPTLGSGSSVGHLAEIYVYGTDKLEHHHHHH
  soluble on expression in E. coli: soluble

## MSIETFTPTPLLFTPGAANKVKTLIDEEGNPRLKLRVFVTGGGCSGFQYGFTFDEDIADDDTVIERDGVGLVVDPMSFQYLAGSEVDYQEGLEGSRFVIKNPNAATTCGCGQSFSI
  soluble on expression in E. coli: not soluble

## MLTIKNLHASVHNNQILRGVNLTINAGEVHAIMGPNGSGKSTLASVLAGREDYAIVDGDVRYFDEDLFELSPEDRAAKGLFLAFQYPVEIPGVNNLYFLKTAVNSIRKTRGEAPFDAIDLMGLVKEKLALVDMDDKFLKRSVNEGFSGGEKKRNEILQMLMLDPRLAILDETDSGLDIDALQTVAKGVNSLRNKERAILLVTHYQRLLDYIKPDFVHVLVNGRIVLSGDQSLALELEKKGYGWL
  soluble on expression in E. coli: soluble
